Assay results taken from the DeepSol protein solubility set.

assay: soluble on expression in E. coli; label from the status in PepcDB or PDB records

Soluble on expression in E. coli, not soluble:
MGSDKIHHHHHHMRENKVVYGLIGYGGMGRWHTEILSNVPEAVIGGIYDIKEEKREEAKAKGFSVYETEEAMLADSDIDVVLIATPNDCHKPIAIRAMHAGKNVISEKPVTLSSADLLEMEKVAKETGKLFTVHQNRRWDDDFLIIKKLVEEQKLGHVFRIESRVHGSRGIPGDWRKEKVHGGGMVLDWGVHLLDQILYMYGDRKIETVYASLTNITNQEVDDGFTAILTFEGGTEVLVEVGTNNYISLPRWYVLGKDGTAVIRDWQLTGEIIRKTGKTEETVIPVKTAAGLTKTMAPRREDTIVKEDLPKVSGDIADFHRNVVAVIRDGAEPEIKLFQVMRVMKLMEAIFQAAETKQVIEFQDQV
SRIKMKKARKILAEKRAAAPVVSVPCIPPHRLSKITNRLTIQRKSQFMQRLHSYWTLKRQSRNGVPLLRRLQTHLQSQRNCDQVGRDSEDKNWALKEQLKSWQRLRHDLERARLLVELIRKREKLKRETIKVQQIAMEMQLT
MCSVKPKYISLPEQNSLCSLPNSGCCQVEVKIGRSKWEQQKAILVKVDGEPAGKIFIYSQPLIGQMYPLHELKSMGVICEKAGDFLVNLVTERGLKLTFKPIGSTANCFVTALVSGNFTSLTHETHIKTPLQNQEATTSPTIESDLTDKPDTNVYTGSREGYVAPSEKGSNEKKKEVVPNGGDKSVENKKGSDRNVKKTPSKTVTKPLLSESRKRKEAKTLATTQSQDLPAPTKDEPERTNSEPDNGEQEKIKKEKKKGTETSLKDGKNKLNEKIVKPAPTTTPDAGNGGLTPGKEDNKKTVTTSSVEIEVPEKKKAVENAGIIKIS
MGFLQRIGLLPQVTTTPTQHELLAPLLDTYIGVVTEMPTEELFAEQPHLRTVTTFIARAISSTSLHVYRRDSDGGRHRVRDSDLAKLMRRSSKTELMQDMLNGSILDLCLYDEFIWVAMEDSDSGEWELHRIPPTWIKQRKHSDPWTLEWMGIIDAKTGQQIKIPAERIIHVHGYNPTSTSRGLTPVVALRETLKEQLESAAYRGQLWRNGPRLGGVITRPKDAKWDSTSRKRFKAAWQSQYSGRGSGAGGTPILEDGMQFVPAHLKAQDEQVVEMTKLSLQTVASIYHVNPVMVGLLDNANYSNVREFRRSLYGDSLGPIIKQVEGVINEFLRPMIDDDDAVYVEFNLDEKLRASFEEKAAVTSTAVGGPWMTRNEARAMNNLPAIDGGEDLITPLNVTTENSESNNDVGLEEES
MARPIGIYEKATPKHFTWLERLNFAKELGFDFVELSIDESDERLARLDWSKKERLELVNAIFETGVRIPTITFSGHRRYPLGSNDSEKEARALEMMEKCIEFAQDIGIRNIQLAGYDVYYEEKSPKTRARFLKNLRQACTWAEEAQVILSIEIMDDPFINSIEKYLAVEKEIDSPYLFVYPDAGNVSAWGNDLWSEFYIGHKSIAALHLKDTYAVTESSKGQFRDVPFGQGCVDWEAMFDVLKKTNYNGPFLIEMWSENCETVEETRAAIKEAQDFLYPLIEKAGLR
MAHHHHHHMDEYDYNYATYDIDNFTNNFEDNLINYNQIDFINDNAEINNYSNEYYAYDEDLVEENVSEKRIHNKVLLSNDNEFDNNLINISNEIKTENSNNDTSLLKKRKIINDILLNIKKKMKKNDTLCIICLQNEKKYTFTCCYEYYCSLECFKKHDQQKCRNQNKNEPKISGSHNINMDDIKNSNHQKYEDTYYYQNEEDINKKQNDKVIENTIKLDNENKKNEINNINDMDTTCSNFPNNNLSTSLLNNDNNIPNNNENSESSDDYTDDYDMLTEEQKKKLKEDHTLKILLKNNYVREVFKQFTLSNDKIGYLSHYINDPTIVQVIDHIMKTIDDT
MICNCFLLIIVTLVISNCDGICLNHEGWGNVGSVFTDPLCNVWCEIKLCGPGQCIEDPMTTAPARCVCEKCYRDNSGNAVYPGGNNDYQQQAQMNRERQLDRQYNRQLRQQNRMNKAWQRGWQ
MQNDNHSTAQPEKDVARLTEEVREAIAHGGDIENAIRNLTLKAMHSNGLDIESLKQIATAVMKGVQEGAQQKMTHAAEQSHAAQSQITQAVVGLDTAFAQLAGASKLALEEAASKAKQFSDSELTKAQADLKDLESVFLDTLKHTATAAQGLIAETLRDMLSHAQHNGTAVGMQLKDTLAVFAHQMASTGRAQFEAGVKLTQTTADLLYKISTGVLSGITSQTNRDDK

Soluble on expression in E. coli, soluble:
MSLKGDHAGKDRLIYKLQQTDSSYRYTNGTQGTAWTLIMENPLKGYGYGDDIYHAIYNKRVVDFPSWKFRQSIGPHNEGHHHHHH
MAHHHHHHMARIPPLVVCGPSGVGKGTLIKKVLSEFPSRFRFSISCTTRNKREKETNGVDYYFVDKDDFERKLKEGQFLEFDKYANNFYGTLKSEYDLAVGEGKICLFEMNINGVKQLKESKHIQDGIYIFVKPPSIDILLGRLKNRNTEKPEEINKRMQELTREMDEADKVGFNYFIVNDDLARTYAELREYLLGSYPQLRGG
MENAGKATSLQSSRDLFHRLMSENSSGGWEKSWEAGATPWDLGKPTPVIAHLVETGSLPNGRALVPGCGTGYDVVAMASPDRHVVGLDISKTAVERSTKKFSTLPNAKYFSFLSEDFFTWEPAEKFDLIFDYTFFCAFEPGVRPLWAQRMEKLLKPGGELITLMFPIDERSGGPPYEVSVSEYEKVLIPLGFEAISIVDNELAVGPRKGMEKLGRWKKSSTFHSTL
MLFIAFAPFGAFALEANSKNDGYSLDDIKYYKIFENEDIPKIMYALRQGDFEIIAELKNEWEIEEEDVSFEYTTSKNPLGELIRDNLYELGQKYEVFEDESDFVSKMNVWATAFTKSMMKKSSEQKDKLIVQTVNALDNLDETLNLFSERLREWYSLYFPEMDNIVKKHDIYVSLVSEYGDREEYTRTKLKKTMPSNVARTISLAAKESMGADVSEFDLKIMKNLADEIKSMYEYRESLQEYLETSMNEIAPNLTKVAGASLGARLISLAGGIERLLRLPASTIQVIGAEKALFAHLRERALPPKHGVIFQHPLIQGSPWWIHGKIARAISCKISIAIRADAFGNDISDMLIEDMNKKVAEIKEKFPEPTRKRRPRPDTRSFGNKGGQDRDRRSQGDRKPSGNRGDSKKGGKPFGKKPAGKDDRRDNRKGDRKPFGGKPKNSGNQPPKERSGEKRRDSTKKVKAERKVIGKTSSQNLEHHHHHH
MMSNQTVYQFIAENQNELLQLWTDTLKELSEQESYQLTDQVYENISKEYIDILLLSVKDENAAESQISELALRAVQIGLSMKFLATALAEFWKRLYTKMNDKRLPDQESTELIWQIDRFFSPINTEIFNQYSISWE
GIDPFTMVALSLKISIGNVVKTMQFEPSTMVYDACRMIRERIPEALAGPPNDFGLFLSDDDPKKGIWLEAGKALDYYMLRNGDTMEYRKKQRPLKIRMLDGTVKTIMVDDSKTVTDMLMTICARIGITNHDEYSLVRELMEEKKDELNWLDHGRTLREQGVEEHETLLLRRKFFYSDQ
MNRKGNMKRKTLKNIVEYDGIGLHKGEIIKMKLIPAKSGGIIFRMVNMPEGKNEILLDYRNIFDLTRGTNLKNEHGAMVFTIEHFLSALYVLGITDLVIELNGNELPICDGSAIKFLDLFQESGIVELDEYVEEIIVKEPIFLSKGDKHVIALPYPDGYKLTYAIRFEHTFLKSQLAEFEITEKNYRKEIASARTFGFDYEVEYLKQNNLALGGTLENAIVIKKDGVLNPDGLRFDDEFVRHKMLDIIGDLKILNRPIRAHIIAIKAGHLIDIEFAKILDNIKLEHHHHHH
MVERIEDLNLPNAVIGRLIKEALPESASVSKEARAAIARAASVFAIFVTSSSTALAHKQNHKTITAKDILQTLTELDFESFVPSLTQDLEVYRKVVKEKKESKASKKDSNTAENANASATATAEEAPE
